According to PMC5576363:

Target: T1, LbuC2c2-WT (Leptotrichia buccalis, UniProt C7NBY4 1-1159)
T1 sequence: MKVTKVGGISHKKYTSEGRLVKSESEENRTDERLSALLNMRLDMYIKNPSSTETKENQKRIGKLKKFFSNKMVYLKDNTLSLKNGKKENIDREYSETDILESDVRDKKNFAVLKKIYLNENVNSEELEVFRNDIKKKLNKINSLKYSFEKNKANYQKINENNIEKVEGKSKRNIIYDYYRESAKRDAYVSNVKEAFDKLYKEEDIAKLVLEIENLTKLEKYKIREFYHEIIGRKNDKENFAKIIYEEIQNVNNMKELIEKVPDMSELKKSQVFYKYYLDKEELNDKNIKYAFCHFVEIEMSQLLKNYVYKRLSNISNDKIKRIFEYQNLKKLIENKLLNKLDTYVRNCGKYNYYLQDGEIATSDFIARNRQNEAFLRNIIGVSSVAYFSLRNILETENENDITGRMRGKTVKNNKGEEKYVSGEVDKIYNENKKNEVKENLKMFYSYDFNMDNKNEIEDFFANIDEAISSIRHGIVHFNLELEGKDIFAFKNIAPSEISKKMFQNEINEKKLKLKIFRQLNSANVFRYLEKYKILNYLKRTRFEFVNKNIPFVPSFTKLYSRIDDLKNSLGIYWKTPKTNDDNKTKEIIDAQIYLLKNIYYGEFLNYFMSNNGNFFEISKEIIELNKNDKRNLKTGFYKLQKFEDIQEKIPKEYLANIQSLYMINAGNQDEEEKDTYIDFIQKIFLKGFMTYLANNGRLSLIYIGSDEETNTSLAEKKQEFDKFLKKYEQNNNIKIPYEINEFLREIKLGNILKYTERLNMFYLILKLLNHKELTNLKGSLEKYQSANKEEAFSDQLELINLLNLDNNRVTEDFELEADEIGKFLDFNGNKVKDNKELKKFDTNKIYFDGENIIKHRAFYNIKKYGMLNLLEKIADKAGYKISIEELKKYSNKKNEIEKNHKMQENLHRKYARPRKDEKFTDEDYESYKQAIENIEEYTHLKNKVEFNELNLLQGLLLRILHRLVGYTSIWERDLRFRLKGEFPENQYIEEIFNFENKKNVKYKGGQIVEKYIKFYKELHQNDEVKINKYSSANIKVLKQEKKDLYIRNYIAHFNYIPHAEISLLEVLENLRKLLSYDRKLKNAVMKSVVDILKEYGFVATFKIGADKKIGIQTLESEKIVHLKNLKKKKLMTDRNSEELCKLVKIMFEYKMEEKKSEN
Assay: filter binding

Row | Binder | Kd [nM]
1 | mature crRNA-A_GG (crLbu_A_GG_AES432) (structured_RNA) RNA: GGCCACCCCAAAAAUGAAGGGGACUAAAACAGGGGCAGAGAUGAUGACCCU | 27.1 ± 7.5
2 | mature crRNA-A_GA (crLbu_A_mature_GA_SCK340) (structured_RNA) RNA: GACCACCCCAAAAAUGAAGGGGACUAAAACAGGGGCAGAGAUGAUGACCCU | 4.65 ± 0.6
